# In patent US20070218051A1, “Epitope peptides immunogenic against Streptococcus pneumoniae” (Sarvamangala J N Devi, priority 1998, published 2007):
# B1: 37-kDa protein: 37-kDa species-common S. pneumoniae protein, pneumococcal surface adhesin A (PsaA), used as immunogen (protein)
# chain: CASGKKDTTSGQKLKVVATNSIIADITKNIAGDKIDLHSIVPIGQDPHEYEPLPEDVKKTSEADLIFYNGINLETGGNAWFTKLVENAKKTENKDYFAVSDGVDVIYLEGQNEKGKEDPHAWLNLENGIIFAKNIAKQLSAKDPNNKEFYEKNLKEYTDKLDKLDKESKDKFNKIPAEKKLIVTSEGAFKYFSKAYGVPSAYIWEINTEEEGTPEQIKTLVEKLRQTKVPSLFVESSVDDRPMKTVSQDTNIPIYAQIFTDSIAEQGKEGDSYYSMMKYNLDKIAEGLAK
# Experiments:
# [1] = system: S. pneumoniae type 3 strain, WU2; experiment: Protection experiment, Example 5: active immunization of xid mice, challenge with WU2; type: in vivo, Streptococcus pneumoniae; conditions: CBA/CaHN/J xid mice immunized with 21 μg s.c. in CFA plus 100 μg IP boost; IV challenge 140 CFU WU2
# Description: Twenty CBA/CaHN/J mice carrying the xid mutation were injected according to the following protocol:
# 1. All mice were bled prior to immunization to establish baseline immunity. Ten test mice were immunized subcutaneously in four sites with a total of 21 μg of 37-kDa protein antigen (pneumococcal fimbrial protein A) emulsified in Complete Freund's adjuvant (CFA). Ten control mice were immunized identically with CFA and buffer substituting for the antigen.
# 2. Fourteen days later, the mice were boosted intraperitoneally (IP) with 100 μg of the 37-kDa protein antigen (test mice) or with buffer (controls). No adjuvant was used with this booster immunization.
# 3. Eight days later, all mice were bled via the infraorbital sinus and the were collected and pooled into the two groups (immunized and controls). At the same time, blood was collected from individual mice to assay for antibody responses.
# 6. At the same time, the eighteen (8 test and 10 control) mice were challenged I.V with the same culture of WU2.
# 7. Deaths were tallied daily.
# [2] = system: virulent capsular type 3 Streptococcus pneumoniae strain, WU2; experiment: Protection experiment, Example 4: active immunization of xid mice, challenge with WU2; type: in vivo; conditions: CBA/CaHN/J xid mice; about 22 μg s.c. in CFA, 100 μg IP 14 days later; IV challenge 60 CFU WU2; observed 21 days
# Description: CBA/CaHN/J Mice. X-linked immune deficiency (xid) CBA/N mice as described by Wicker et al., Curr. Top. Microbiol, Immunol. 124:86-[0] were used to study the protection afforded by the 37-kDa protein.
# Twenty CBA/CaHN/J mice carrying the xid mutation […] immunodeficiency) were used in this protection study. They were tested for protection against challenge with a virulent capsulan type 3 Streptococcus pneumoniae strain, WU2. Mice were anesthetized with Ketamine/Rompum and bled infraorbitally to obtain pre-immunization sera. 37-kDa protein (pneumococcal surface adhesin A) was emulsified in complete Freund's adjuvant (CFA) to a protein concentration of 54 μg per ml. Ten mice were injected subcutaneously into 2 axillary and 2 inguinal sites at 0.1 ml per site, delivering approximately 22 μg protein/mouse. Ten control mice were treated identically with CFA and buffer substituting for protein. Fourteen days later, the ten test mice were injected intraperitoneally (IP) with 100 μg of the 37-kDa protein; controls were injected IP with buffer. Eight days following the IP immunizations, all mice were bled infraorbitally to obtain post-immunization sera, and challenged intravenously (IV) with 60 CFU of a log phase culture of S. pneumoniae strain WU2. […]
molecule,measurement,setting,value
B1,No. Dead/Total No. Challenged,[1],0/8
same,survived (mice surviving/total),[2],10/10
